Measured values taken from patent US20230365662A1.
Where a chain is given by its changes, count along the chain named. Names and notes keep the numbering of the source. Values joined by “and” are separate entries in the source; they are usually repeats but may differ in a detail not shown here. Identical values can stand only once.

B1: KB001 mouse Fab FASEBA VH Y106S (Fab, V domains shown)
VH: EVQLKQSGPGLVAPSQSLSITCTVSGFSLSIYSVHWVRQPPGKGLEWLGMIWGGGSSDYNSALKSRLSISKDNSKSQVFLKMNSLQTDDTAMYYCARNGNFYAMDSWGQGTSVTVSS
VL: QIVLTQSPAIMSASLGERVTMTCTASSSVSSSFLHWYQQKPGSSPQLWIYSTSNLASGVPARFSGSGSGTSYSLTISSMEAEDAATYYCHQYHHSPYIYTFGGGTKLEIK
B2: KB001 mouse Fab FASEBA VH Y106N (Fab, V domains shown)
VH: B1 VH with S106N
VL: B1 VL
B3: KB001 mouse Fab FASEBA VH Y106W (Fab, V domains shown)
VH: B1 VH with S106W
VL: B1 VL
B4: KB001 mouse Fab FASEBA VH G26D (Fab, V domains shown)
VH: B1 VH with G26D, S106Y
VL: B1 VL
B5: KB001 mouse Fab FASEBA VH G26N (Fab, V domains shown)
VH: B1 VH with G26N, S106Y
VL: B1 VL
B6: KB001 mouse Fab FASEBA VH S28H (Fab, V domains shown)
VH: B1 VH with S28H, S106Y
VL: B1 VL
B7: KB001 mouse Fab FASEBA VH S28L (Fab, V domains shown)
VH: B1 VH with S28L, S106Y
VL: B1 VL
B8: KB001 mouse Fab FASEBA VH S28G (Fab, V domains shown)
VH: B1 VH with S28G, S106Y
VL: B1 VL
B9: KB001 mouse Fab FASEBA VH S28A (Fab, V domains shown)
VH: B1 VH with S28A, S106Y
VL: B1 VL
B10: KB001 mouse Fab FASEBA VH S28R (Fab, V domains shown)
VH: B1 VH with S28R, S106Y
VL: B1 VL
B11: KB001 mouse Fab FASEBA VH S28N (Fab, V domains shown)
VH: B1 VH with S28N, S106Y
VL: B1 VL
B12: KB001 mouse Fab FASEBA VH S28Y (Fab, V domains shown)
VH: B1 VH with S28Y, S106Y
VL: B1 VL
B13: KB001 mouse Fab FASEBA VH L29P (Fab, V domains shown)
VH: B1 VH with L29P, S106Y
VL: B1 VL
B14: KB001 mouse Fab FASEBA VH L29T (Fab, V domains shown)
VH: B1 VH with L29T, S106Y
VL: B1 VL
B15: KB001 mouse Fab FASEBA VH L29V (Fab, V domains shown)
VH: B1 VH with L29V, S106Y
VL: B1 VL
B16: KB001 mouse Fab FASEBA VH S30Q (Fab, V domains shown)
VH: B1 VH with S30Q, S106Y
VL: B1 VL
B17: KB001 mouse Fab FASEBA VH S30R (Fab, V domains shown)
VH: B1 VH with S30R, S106Y
VL: B1 VL
B18: KB001 mouse Fab FASEBA VH S30T (Fab, V domains shown)
VH: B1 VH with S30T, S106Y
VL: B1 VL
B19: KB001 mouse Fab FASEBA VH S30K (Fab, V domains shown)
VH: B1 VH with S30K, S106Y
VL: B1 VL
B20: KB001 mouse Fab FASEBA VH S30L (Fab, V domains shown)
VH: B1 VH with S30L, S106Y
VL: B1 VL
B21: KB001 mouse Fab FASEBA VH S30F (Fab, V domains shown)
VH: B1 VH with S30F, S106Y
VL: B1 VL
B22: KB001 mouse Fab FASEBA VH S30M (Fab, V domains shown)
VH: B1 VH with S30M, S106Y
VL: B1 VL
B23: KB001 mouse Fab FASEBA VH S30W (Fab, V domains shown)
VH: B1 VH with S30W, S106Y
VL: B1 VL
B24: KB001 mouse Fab FASEBA VH S30H (Fab, V domains shown)
VH: B1 VH with S30H, S106Y
VL: B1 VL
B25: KB001 mouse Fab FASEBA VH I31E (Fab, V domains shown)
VH: B1 VH with I31E, S106Y
VL: B1 VL
B26: KB001 mouse Fab FASEBA VH I31F (Fab, V domains shown)
VH: B1 VH with I31F, S106Y
VL: B1 VL
B27: KB001 mouse Fab FASEBA VH I31Q (Fab, V domains shown)
VH: B1 VH with I31Q, S106Y
VL: B1 VL
B28: KB001 mouse Fab FASEBA VH I31P (Fab, V domains shown)
VH: B1 VH with I31P, S106Y
VL: B1 VL
B29: KB001 mouse Fab FASEBA VH I31L (Fab, V domains shown)
VH: B1 VH with I31L, S106Y
VL: B1 VL
B30: KB001 mouse Fab FASEBA VH I31N (Fab, V domains shown)
VH: B1 VH with I31N, S106Y
VL: B1 VL
B31: KB001 mouse Fab FASEBA VH I31W (Fab, V domains shown)
VH: B1 VH with I31W, S106Y
VL: B1 VL
B32: KB001 mouse Fab FASEBA VH Y32S (Fab, V domains shown)
VH: B1 VH with Y32S, S106Y
VL: B1 VL
B33: KB001 mouse Fab FASEBA VH Y32W (Fab, V domains shown)
VH: B1 VH with Y32W, S106Y
VL: B1 VL
B34: KB001 mouse Fab FASEBA VH Y32N (Fab, V domains shown)
VH: B1 VH with Y32N, S106Y
VL: B1 VL
B35: KB001 mouse Fab FASEBA VH Y32F (Fab, V domains shown)
VH: B1 VH with Y32F, S106Y
VL: B1 VL
B36: KB001 mouse Fab FASEBA VH V34M (Fab, V domains shown)
VH: B1 VH with V34M, S106Y
VL: B1 VL
B37: KB001 mouse Fab FASEBA VH H35V (Fab, V domains shown)
VH: B1 VH with H35V, S106Y
VL: B1 VL
B38: KB001 mouse Fab FASEBA VH I51Q/M92I (Fab, V domains shown)
VH: B1 VH with I51Q, M92I, S106Y
VL: B1 VL
B39: KB001 mouse Fab FASEBA VH I51V (Fab, V domains shown)
VH: B1 VH with I51V, S106Y
VL: B1 VL
B40: KB001 mouse Fab FASEBA VH G53P (Fab, V domains shown)
VH: B1 VH with G53P, S106Y
VL: B1 VL
B41: KB001 mouse Fab FASEBA VH G53S (Fab, V domains shown)
VH: B1 VH with G53S, S106Y
VL: B1 VL
B42: KB001 mouse Fab FASEBA VH G55D (Fab, V domains shown)
VH: B1 VH with G55D, S106Y
VL: B1 VL

target: HRgpA-6H (Porphyromonas gingivalis) (UniProt P28784); assay: ELISA on coated HRgpA-6H
Chain of UniProt P28784 (P28784 228-991 limits assumed): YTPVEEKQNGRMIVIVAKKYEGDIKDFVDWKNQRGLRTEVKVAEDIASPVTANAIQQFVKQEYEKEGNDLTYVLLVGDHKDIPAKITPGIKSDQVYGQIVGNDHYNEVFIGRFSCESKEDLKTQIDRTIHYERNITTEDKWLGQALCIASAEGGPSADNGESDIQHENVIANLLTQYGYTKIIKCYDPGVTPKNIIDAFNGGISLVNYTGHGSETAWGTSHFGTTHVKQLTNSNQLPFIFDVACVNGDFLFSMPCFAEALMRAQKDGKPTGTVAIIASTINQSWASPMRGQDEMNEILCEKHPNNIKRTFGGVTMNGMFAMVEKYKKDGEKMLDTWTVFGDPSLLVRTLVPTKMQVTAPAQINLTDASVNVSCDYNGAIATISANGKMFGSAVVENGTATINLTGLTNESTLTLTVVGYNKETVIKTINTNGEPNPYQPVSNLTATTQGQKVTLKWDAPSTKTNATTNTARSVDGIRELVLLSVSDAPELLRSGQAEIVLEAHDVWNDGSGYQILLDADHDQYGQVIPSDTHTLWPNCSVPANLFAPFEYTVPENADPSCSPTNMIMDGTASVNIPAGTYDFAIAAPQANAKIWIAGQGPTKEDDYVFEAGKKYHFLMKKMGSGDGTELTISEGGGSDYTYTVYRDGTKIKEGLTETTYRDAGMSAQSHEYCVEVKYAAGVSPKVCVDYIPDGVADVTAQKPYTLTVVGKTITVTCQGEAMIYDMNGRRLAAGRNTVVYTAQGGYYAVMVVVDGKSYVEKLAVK

| Binder | OD450nm | Ratio OD(Variant)/OD(WT) |
| --- | --- | --- |
| B1 | 0.852 and 0.849 | 1.11 and 1.1 |
| B2 | 0.792 | 1.03 |
| B3 | 0.791 and 0.809 and 0.82 | 1.03 and 1.05 and 1.07 |
| B4 | 0.47 and 0.481 | 0.925 and 0.947 |
| B5 | 0.445 | 0.876 |
| B6 | 0.511 and 0.526 | 0.946 and 0.974 |
| B7 | 0.435 and 0.468 | 0.806 and 0.867 |
| B8 | 0.468 and 0.486 | 0.867 and 0.9 |
| B9 | 0.488 | 0.904 |
| B10 | 0.458 | 0.848 |
| B11 | 0.53 | 0.981 |
| B12 | 0.437 | 0.809 |
| B13 | 0.468 | 0.867 |
| B14 | 0.502 and 0.512 and 0.501 | 0.93 and 0.948 and 0.928 |
| B15 | 0.446 | 0.826 |
| B16 | 0.47 and 0.483 | 0.932 and 0.957 |
| B17 | 0.481 | 0.953 |
| B18 | 0.457 | 0.906 |
| B19 | 0.46 and 0.467 and 0.493 | 0.912 and 0.926 and 0.977 |
| B20 | 0.468 | 0.928 |
| B21 | 0.438 | 0.868 |

| Binder | OD450nm | Ratio OD(Variant)/OD(WT) |
| --- | --- | --- |
| B22 | 0.437 | 0.866 |
| B23 | 0.469 | 0.93 |
| B24 | 0.482 | 0.955 |
| B25 | 0.42 and 0.458 and 0.428 | 0.833 and 0.908 and 0.848 |
| B26 | 0.45 | 0.892 |
| B27 | 0.44 and 0.439 | 0.872 and 0.87 |
| B28 | 0.471 and 0.428 | 0.934 and 0.848 |
| B29 | 0.442 and 0.431 | 0.876 and 0.854 |
| B30 | 0.429 | 0.85 |
| B31 | 0.459 | 0.91 |
| B32 | 0.717 and 0.783 and 0.718 | 0.847 and 0.925 and 0.848 |
| B33 | 0.731 and 0.718 and 0.747 | 0.864 and 0.848 and 0.882 |
| B34 | 0.826 and 0.775 | 0.976 and 0.916 |
| B35 | 0.814 and 0.807 | 0.962 and 0.953 |
| B36 | 0.793 and 0.791 | 0.962 and 0.959 |
| B37 | 0.706 | 0.856 |
| B38 | 0.722 | 0.817 |
| B39 | 0.798 | 0.903 |
| B40 | 0.754 and 0.716 | 0.947 and 0.899 |
| B41 | 0.686 | 0.861 |
| B42 | 0.697 | 0.866 |
